Earlier results on two compounds are cited in US20180022822A1, “NOVEL ANTI-FIBROBLAST ACTIVATION PROTEIN (FAP) BINDING AGENTS AND USES THEREOF” (Mabimmune Diagnostics AG, priority 2016, published 2018).

The conditions of data set [1]: pH 7.8.
The conditions of data set [2]: in vivo.

`CC(C)[C@H](N)C(=O)N1CCC[C@H]1B(O)O` [Talabostat, Val-boroPro]: the “stability of inhibitory activity” value in data set [1] is “rapidly loses inhibitory activity”. As to “Sibrotuzumab: humanized version of the F19 antibody that specifically binds to human FAP”, the “patients with change in pharmacokinetics and reduced tumor uptake” value in data set [2] (human) is 4 of 26. For the same compound, the “patients who developed human-anti-human antibodies (HAHA)” value in data set [2] was 8 of 26.
